Ends that are not written are not given here.
Experiments:
[1] = test system: Heliothis peltigera female moths; test: Topical application of agonistic peptides: stimulation of sex pheromone biosynthesis (solvent effect on penetrability); type: in vivo
Description: FIG. 6. is a graph showing the effect of a topically applied peptide (Peptide 12 in Table 1) on stimulation of sex pheromone biosynthesis in Heliothis peltigera female moths. • The peptide was tested at a concentration of 300 pmol and was applied in DDW, DMSO and IIS for different times (ranging from 0.5 to 7 h). • Statistical analysis compared pheromone content in the presence of the peptide in a given solvent (DDW, DMSO or IIS) at different time points (indicated by small black letters) and between solvents at the same time point (indicated by capital light grey letters). […] FIG. 7A and FIG. 7B are graphs showing the dose-response of a topically applied peptide [Peptide 12 (7A) and Peptide 11 (7B)] on stimulation of sex pheromone biosynthesis in Heliothis peltigera female moths. The peptide was tested at the indicated concentrations and was applied in DDW, IIS and DMSO for 3 h. • Statistical analysis compared pheromone content in the presence of the peptide in a given solvent (DDW, DMSO or IIS) at different concentrations (indicated by black letters) and between solvents at the same concentration (indicated by capital light grey letters). […] The tested peptides are applied onto the insect (e.g. moths) at scotophase (when pheromone is naturally synthesized) in a given solvent for the indicated times. Examination of the effect of carrier solvent on penetrability and activity was tested as a function of time and concentration with peptides 11 and 12 (see Table 1) which are agonistic peptides, i.e. stimulate sex pheromone production in female moths.

[2] = test system: Heliothis peltigera female moths; test: Environmental (outdoor storage) stability, read out as sex pheromone production after injection; type: physicochemical; settings: for stability: pheromone-stimulating activity after storage vs peptide stored at -80° C.: direct sunlight, about 31° C.; for stability in the course of storage: 4 weeks
Description: FIG. 9. is a graph showing the stability of Peptide 12 in a powder form under different storage conditions. • The stability was evaluated by determining sex pheromone production in Heliothis peltigera females exposed to said peptide. • The storage conditions are: (i) exposure to direct sunlight and an average temperature of about 31° C. for 1 week (“outdoor 1 week”); (ii) room temperature (RT); and (iii) −80° C. • Sex pheromone content is expressed as a percentage of the pheromone content obtained by injection of a peptide stored at −80° C. (defined as 100%). Statistical analysis compared pheromone content generated by injection of a peptide stored at room temperature (RT) for 1 week or a peptide kept for 1 week outdoors with that of the control (a peptide stored at −80° C.). […] FIG. 10A and FIG. 10B are graphs showing the stability of Peptide 12 dissolved in DDW or ITS at a concentration of 1 nmol (10A) or 100 pmol (10B) under different storage conditions. • The stability was evaluated by determining sex pheromone production in Heliothis peltigera females exposed to said peptide. • The storage conditions are: (i) exposure to direct sunlight and an average temperature of about 31° C. for 1 week (“outdoor 1 week”); and (ii) −80° C. • Sex pheromone content is expressed as a percentage of the pheromone content obtained by injection of a peptide stored as a dry powder at −80° C. (defined as 100%). Statistical analysis compared the pheromone content generated by the different treatments with that of the control (a peptide stored at −80° C.). […] FIG. 11A and FIG. 11B are graphs showing the stability of Peptide 12 dissolved in DDW (A) or IIS (B) at a concentration of 1 nmol, and exposed to direct sunlight and temperatures in the range of 27° C. to 31° C. for 1-4 weeks or by a peptide stored at 4° C. for 1-4 weeks. • The stability was evaluated by determining sex pheromone production in Heliothis peltigera females exposed to said peptide. • Activity is expressed as a percentage of that obtained by Peptide 12 stored at −80° C. (defined as 100%, not shown in the figures). • Statistical analysis compared activity at the same storage time at 4° C. and outdoor, and as a function of time within the same treatment (outdoor or 4° C.) as a function of storage time (capital letters). […] This assay is used to test the agonistic properties of the tested peptides (in adult females), and to determine the peptides melanotropic agonistic or antagonistic properties (in larvae). It was also used to determine the activity of peptides that were stored outdoors for different amounts of time. In order to evaluate the environmental stability of the peptides, peptide 12 (in Table 1) was tested. Stability was monitored by exposing a tube containing the peptide, either in the form of a dry powder or in solution made up in either DDW or IIS at a concentration of 100 pmol or 1 nmol, to direct sun light and a temperature range of 27 to 31° C. (“outdoor”). […] Similar results were obtained at a lower dose of the peptide, of 100 pmol (FIG. 10B). The peptide was also tested for stability for 4 weeks when dissolved in either DDW or IIS, at a concentration of 1 nmol, under the same conditions as above at a temperature range of 27° C. to 31° C.

Acetyl-Tyr-Phe-Trp-Pro-Arg-Leu-amide (Ac-YFWPRL-NH2) [Peptide 12, agonistic peptide lacking a dPhe residue, tested for bioavailability and environmental stability]
stimulation of sex pheromone biosynthesis: effect of carrier on bioavailability ([1]; 300 pmol, DDW, DMSO and IIS, 0.5 to 7 h): IIS has been found to be the best carrier | stimulation of sex pheromone biosynthesis, dose response by carrier ([1]; 3 h, DDW, IIS, DMSO): higher activity in IIS compared to DDW or DMSO | stability: pheromone-stimulating activity after storage vs peptide stored at -80° C. ([2]; dissolved in DDW or IIS, 100 pmol, 1 week): no significant difference | activity of peptide kept outdoor vs at 4° C. at the same storage time ([2]; dissolved in DDW or IIS, 1 nmol, 1-4 weeks): No differences | stability: pheromone-stimulating activity after storage vs peptide stored at -80° C. ([2]; dissolved in DDW or IIS, 1 nmol, 1 week): no significant difference | stability in the course of storage ([2]; dissolved in DDW, 1 nmol, outdoor 27° C. to 31° C. or 4° C.): the activity dropped in the course of storage | stability in the course of storage ([2]; dissolved in IIS, 1 nmol, outdoor 27° C. to 31° C.): much more stable | stability: pheromone-stimulating activity after storage vs peptide stored at -80° C. ([2]; dry powder, 1 week, or room temperature): no significant difference

Tyr-Phe-Trp-Pro-Arg-Leu-amide (YFWPRL-NH2) [Peptide 11, agonistic peptide lacking a dPhe residue, tested for bioavailability]
stimulation of sex pheromone biosynthesis ([1]; 3 h, in DDW and IIS): barely any activity | stimulation of sex pheromone biosynthesis ([1]; 3 h, in DMSO): very active
